Test results reported in patent publication US8101379B2, “Preparation of low bleeding anticoagulant fusion protein and its use” (Institute of Radiation Medicine Academy of Military Medical …, priority 2006, dated 2012).
Values belong to the molecule of their own block, whether it stands above or below them.

What was measured:
[1] = tested on: T1, EPR-HV2 (EH), hirudin HV2 with EPR linked to its N-terminus
T1 sequence: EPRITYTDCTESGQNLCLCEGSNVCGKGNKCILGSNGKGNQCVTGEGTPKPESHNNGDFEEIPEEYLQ

[2] = tested on: FH, hirudin linked at its amino-terminal with an oligopeptide recognizable and cleavable by blood coagulation factor Xa
[3] = tested on: T2, GVYAR-HV2 (GH), hirudin HV2 with GVYAR linked to its N-terminus
T2 sequence: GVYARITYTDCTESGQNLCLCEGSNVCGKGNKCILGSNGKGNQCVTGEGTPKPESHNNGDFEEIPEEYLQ

[4] = tested on: TH, hirudin linked at its amino-terminal with an oligopeptide recognizable and cleavable by thrombin
[5] = tested on: rat carotid artery thrombosis model; experiment: Time needed for thrombogenesis in rat carotid artery thrombosis model; assay type: in vivo; settings: for Time needed for thrombogenesis: rat carotid artery, X ± SD, 10 animals; for time needed for thrombogenesis (in words): rat carotid artery thrombosis model, statement on table 2
From the text: (§1) (1) Analyses of GH, EH, FH and TH antithrombotic and hemorrhagic side-effects in rat carotid artery thrombosis model, and the results were listed in table 2 and 3.

[6] = tested on: rat carotid artery thrombosis model; experiment: Plasma TT levels in rat carotid artery thrombosis model; assay type: in vivo; settings: NS group = 100%, X ± SD
From the text: as §1

tail-cut mouse = experiment: Bleeding time in hemorrhagic model of tail-cut mouse; assay type: in vivo; settings: for Bleeding time: X ± SD, 15 animals; for influence on hemorrhagic indexes compared with HV2 (in words): statement on table 3 and 4
Experimental: (2) The hemorrhagic side-effects of GH, EH, TH and FH in hemorrhagic model of tail-cut mouse were analyzed, and the results were listed in Table 4.

thrombin = thrombin (Homo sapiens, UniProt P00734); experiment: Anticoagulation activity by fibrin-clot method before and after cleavage by thrombin; assay type: biochemical
Experimental: (§2) EH, GH, FH and TH were cleaved respectively by thrombin, FXa and FXIa, then the activities of anticoagulation were assayed by fibrin-clot method.

FXa = FXa (Homo sapiens, UniProt P00742); experiment: Anticoagulation activity by fibrin-clot method before and after cleavage by FXa; assay type: biochemical
Experimental: as §2

FXIa = FXIa (Homo sapiens, UniProt P03951); experiment: Anticoagulation activity by fibrin-clot method before and after cleavage by FXIa; assay type: biochemical
Experimental: as §2

Chain of FXa (P00742 235-488 limits assumed): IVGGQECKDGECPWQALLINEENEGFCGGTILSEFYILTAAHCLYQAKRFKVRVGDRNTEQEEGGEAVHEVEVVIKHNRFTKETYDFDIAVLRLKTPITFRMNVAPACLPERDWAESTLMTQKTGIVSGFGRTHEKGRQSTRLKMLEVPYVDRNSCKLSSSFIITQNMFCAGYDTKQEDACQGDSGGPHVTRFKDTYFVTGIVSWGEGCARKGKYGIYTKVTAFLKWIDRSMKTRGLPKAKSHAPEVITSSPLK
Chain of FXa (P00742 41-179 partner limits assumed): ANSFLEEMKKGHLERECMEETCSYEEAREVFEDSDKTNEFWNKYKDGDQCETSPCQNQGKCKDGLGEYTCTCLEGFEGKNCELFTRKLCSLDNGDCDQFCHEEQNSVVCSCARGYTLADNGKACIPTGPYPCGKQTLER
Chain of FXIa (P03951 388-625 limits assumed): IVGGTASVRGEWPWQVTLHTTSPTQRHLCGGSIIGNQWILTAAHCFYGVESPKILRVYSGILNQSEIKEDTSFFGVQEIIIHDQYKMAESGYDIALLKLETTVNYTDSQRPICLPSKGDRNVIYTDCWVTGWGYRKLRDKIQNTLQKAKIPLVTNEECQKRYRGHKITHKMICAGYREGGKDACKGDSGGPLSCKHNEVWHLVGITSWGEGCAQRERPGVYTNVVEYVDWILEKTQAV
Chain of FXIa (P03951 19-387 partner limits assumed): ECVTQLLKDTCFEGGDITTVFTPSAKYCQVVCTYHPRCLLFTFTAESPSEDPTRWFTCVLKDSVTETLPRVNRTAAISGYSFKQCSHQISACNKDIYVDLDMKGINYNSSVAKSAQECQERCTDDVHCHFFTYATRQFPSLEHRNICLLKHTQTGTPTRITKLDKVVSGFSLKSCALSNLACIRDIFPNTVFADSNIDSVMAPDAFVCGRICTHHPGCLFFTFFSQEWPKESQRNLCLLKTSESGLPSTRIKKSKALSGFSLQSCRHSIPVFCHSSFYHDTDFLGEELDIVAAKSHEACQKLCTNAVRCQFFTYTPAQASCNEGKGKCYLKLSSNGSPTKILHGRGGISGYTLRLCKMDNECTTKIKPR

Molecule: blood coagulation factor XIa
anticoagulation activity (fibrin-clot method) after 3 h of cleavage [1]: 256
anticoagulation activity (fibrin-clot method) after 6 h of cleavage [1]: 512
anticoagulation activity (fibrin-clot method) at 0 h of cleavage [1]: 0
anticoagulation activity (fibrin-clot method) after 3 h of cleavage [2]: 0
anticoagulation activity (fibrin-clot method) after 6 h of cleavage [2]: 0
anticoagulation activity (fibrin-clot method) at 0 h of cleavage [2]: 0
anticoagulation activity (fibrin-clot method) after 3 h of cleavage [3]: 0
anticoagulation activity (fibrin-clot method) after 6 h of cleavage [3]: 0
anticoagulation activity (fibrin-clot method) at 0 h of cleavage [3]: 0
recognition and cleavage, read by release of anticoagulation activity [3]: GH can be recognizable and cleavable by two blood coagulation factors of FXIa and FXa respectively
anticoagulation activity (fibrin-clot method) after 3 h of cleavage [4]: 0
anticoagulation activity (fibrin-clot method) after 6 h of cleavage [4]: 64
anticoagulation activity (fibrin-clot method) at 0 h of cleavage [4]: 0

Molecule: blood coagulation factor Xa
anticoagulation activity (fibrin-clot method) after 3 h of cleavage [1]: 64
anticoagulation activity (fibrin-clot method) after 6 h of cleavage [1]: 128
anticoagulation activity (fibrin-clot method) at 0 h of cleavage [1]: 0
recognition and cleavage, read by release of anticoagulation activity [1]: EH can be recognizable and cleavable by two blood coagulation factors of thrombin and FXa respectively
anticoagulation activity (fibrin-clot method) after 3 h of cleavage [2]: 64
anticoagulation activity (fibrin-clot method) after 6 h of cleavage [2]: 128
anticoagulation activity (fibrin-clot method) at 0 h of cleavage [2]: 0
recognition and cleavage, read by release of anticoagulation activity [2]: while FH only by FXa
anticoagulation activity (fibrin-clot method) after 3 h of cleavage [3]: 64
anticoagulation activity (fibrin-clot method) after 6 h of cleavage [3]: 128
anticoagulation activity (fibrin-clot method) at 0 h of cleavage [3]: 0
recognition and cleavage, read by release of anticoagulation activity [3]: GH can be recognizable and cleavable by two blood coagulation factors of FXIa and FXa respectively
anticoagulation activity (fibrin-clot method) after 3 h of cleavage [4]: 32
anticoagulation activity (fibrin-clot method) after 6 h of cleavage [4]: 64
anticoagulation activity (fibrin-clot method) at 0 h of cleavage [4]: 0

Molecule: hirudin [HV2, reference compound]
Time needed for thrombogenesis ([5]; 2 mg/kg): 1117.00 ± 243.95 s
% of TT changes ([6]; 2 mg/kg): 1005.62 ± 361.28 %
Bleeding time (tail-cut mouse; tail-cut mouse, 1.5 mg/kg): 1532.5 ± 420.74 s

Molecule: thrombin
anticoagulation activity (fibrin-clot method) after 3 h of cleavage [1]: 0
anticoagulation activity (fibrin-clot method) after 6 h of cleavage [1]: 0
anticoagulation activity (fibrin-clot method) at 0 h of cleavage [1]: 0
recognition and cleavage, read by release of anticoagulation activity [1]: EH can be recognizable and cleavable by two blood coagulation factors of thrombin and FXa respectively
anticoagulation activity (fibrin-clot method) after 3 h of cleavage [2]: 2
anticoagulation activity (fibrin-clot method) after 6 h of cleavage [2]: 8
anticoagulation activity (fibrin-clot method) at 0 h of cleavage [2]: 0
anticoagulation activity (fibrin-clot method) after 3 h of cleavage [3]: 2
anticoagulation activity (fibrin-clot method) after 6 h of cleavage [3]: 8
anticoagulation activity (fibrin-clot method) at 0 h of cleavage [3]: 0
anticoagulation activity (fibrin-clot method) after 3 h of cleavage [4]: 0
anticoagulation activity (fibrin-clot method) after 6 h of cleavage [4]: 0
anticoagulation activity (fibrin-clot method) at 0 h of cleavage [4]: 0
recognition and cleavage, read by release of anticoagulation activity [4]: TH only by thrombin

anticoagulation activity (thrombin; 0 h): 0
anticoagulation activity (thrombin; 3 h): 2
anticoagulation activity (thrombin; 6 h): 8
anticoagulation activity (FXa; 0 h): 0
anticoagulation activity (FXa; 3 h): 64
anticoagulation activity (FXa; 6 h): 128
anticoagulation activity (FXIa; 0 h): 0
anticoagulation activity (FXIa; 3 h): 0
anticoagulation activity (FXIa; 6 h): 0
B1: GH: hirudin (HV2) linked at its amino-terminal with the oligopeptide GVYAR recognizable and cleavable by both thrombin and coagulation factor Xa (protein)
chain: T2 sequence
modifications: ends and bridges not checked
notes: hirudin (HV2) linked at its amino-terminal with the oligopeptide GVYAR recognizable and cleavable by both thrombin and coagulation factor Xa
time needed for thrombogenesis (in words) [5]: prolonged in a dose-dependent manner
Time needed for thrombogenesis ([5]; 2 mg/kg): 918.10 ± 204.16 s
Time needed for thrombogenesis ([5]; 4 mg/kg): 1006.7 ± 227.37 s
% of TT changes ([6]; 2 mg/kg): 104.35 ± 17.21%
% of TT changes ([6]; 4 mg/kg): 114.94 ± 19.82 %
influence on hemorrhagic indexes compared with HV2 (in words) (tail-cut mouse): less than that of HV2
Bleeding time (tail-cut mouse; tail-cut mouse, 1.5 mg/kg): 165.46 ± 142.42 s
Bleeding time (tail-cut mouse; tail-cut mouse, 6 mg/kg): 304 ± 178.99 s
bleeding time compared with FH and TH (in words) (tail-cut mouse; tail-cut mouse, statement): significantly shorter bleeding time than that of FH and TH group

anticoagulation activity (thrombin; 0 h): 0
anticoagulation activity (thrombin; 3 h): 0
anticoagulation activity (thrombin; 6 h): 0
anticoagulation activity (FXa; 0 h): 0
anticoagulation activity (FXa; 3 h): 64
anticoagulation activity (FXa; 6 h): 128
anticoagulation activity (FXIa; 0 h): 0
anticoagulation activity (FXIa; 3 h): 256
anticoagulation activity (FXIa; 6 h): 512
B2: EH: hirudin (HV2) linked at its amino-terminal with the oligopeptide EPR recognizable and cleavable by both coagulation factors XIa and Xa (protein)
chain: T1 sequence
modifications: ends and bridges not checked
notes: hirudin (HV2) linked at its amino-terminal with the oligopeptide EPR recognizable and cleavable by both coagulation factors XIa and Xa
time needed for thrombogenesis (in words) [5]: prolonged in a dose-dependent manner
Time needed for thrombogenesis ([5]; 2 mg/kg): 964.10 ± 179.68 s
Time needed for thrombogenesis ([5]; 4 mg/kg): 1083.90 ± 227.10 s
% of TT changes ([6]; 2 mg/kg): 108.41 ± 12.95%
% of TT changes ([6]; 4 mg/kg): 121.81 ± 13.68 %
influence on hemorrhagic indexes compared with HV2 (in words) (tail-cut mouse): less than that of HV2
Bleeding time (tail-cut mouse; tail-cut mouse, 1.5 mg/kg): 203.89 ± 97.41 s
Bleeding time (tail-cut mouse; tail-cut mouse, 6 mg/kg): 338.77 ± 169.08 s
